These results are taken from patent CN118290581A (ZHEJIANG ZHENGXI BIOTECHNOLOGY CO LTD, dated 2024).

The target in assay [1] is T1, 人CD138 (human, UniProt P18827 23-310).
T1 construct: whole, on cells; also called syndecan-1; CD138靶抗原
T1 sequence (looked up): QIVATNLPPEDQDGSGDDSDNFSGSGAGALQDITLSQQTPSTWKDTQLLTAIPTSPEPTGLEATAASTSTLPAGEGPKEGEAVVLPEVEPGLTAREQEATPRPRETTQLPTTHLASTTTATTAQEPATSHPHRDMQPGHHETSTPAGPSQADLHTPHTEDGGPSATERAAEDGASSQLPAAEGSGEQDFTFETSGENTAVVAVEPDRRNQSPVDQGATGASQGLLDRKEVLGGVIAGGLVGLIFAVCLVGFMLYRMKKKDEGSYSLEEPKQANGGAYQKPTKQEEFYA
Put plainly: flow cytometry titration of antibody dilutions (from 1 mg/mL) on cultured activated human cells, goat anti-mouse IgG-PE detection. (In general: A flow cytometer gives signals particle by particle.)

For assay [2], the target named is T1, 人CD138. In words: flow cytometry, APC-labelled antibody on cultured activated cells.

B1: 鼠抗人CD138[ZXCloneHCD138-02]抗体 (antibody, mouse IgG1, kappa, V domains shown)
VH: QVQLQQPGSVLVRPGASVKLSCKTSGYTFTSSWMHWAKQRPGQGLEWIGEIHPNGGNTYYNEKFKGKATLSVDTSSSTAYVDLSSLTSEDSAVYFCATPHYWGQGTTLTVSS
VL: DVVMTQTPLSLPVSLGDQASISCRCRQSLVHSNGNTYLQWYLQKPGQSPILLIYRVSNRFSGVPDRFSGSGSGTDFTLKISRVEAEDLGVYFCSQSTHVPHTFGAGTKLELKR
In assay [1], B1 registered a 亲和力(kd) of 25.2.

B2: 自制鼠抗人CD138[ZXCloneHCD138-02]-APC (antibody, mouse IgG1, kappa, V domains shown)
VH: QVQLQQPGSVLVRPGASVKLSCKTSGYTFTSSWMHWAKQRPGQGLEWIGEIHPNGGNTYYNEKFKGKATLSVDTSSSTAYVDLSSLTSEDSAVYFCATPHYWGQGTTLTVSS
VL: DVVMTQTPLSLPVSLGDQASISCRCRQSLVHSNGNTYLQWYLQKPGQSPILLIYRVSNRFSGVPDRFSGSGSGTDFTLKISRVEAEDLGVYFCSQSTHVPHTFGAGTKLELKR
modifications: APC-labelled (site and chain not stated)
Turning to B2, in assay [2], the binding result is recorded as “binds”.
